Laboratory results published in IntAct's records for PubMed 22483112.

Target: myh9_human MYH9 (UniProt P35579)
Sequence (P35579 whole entry): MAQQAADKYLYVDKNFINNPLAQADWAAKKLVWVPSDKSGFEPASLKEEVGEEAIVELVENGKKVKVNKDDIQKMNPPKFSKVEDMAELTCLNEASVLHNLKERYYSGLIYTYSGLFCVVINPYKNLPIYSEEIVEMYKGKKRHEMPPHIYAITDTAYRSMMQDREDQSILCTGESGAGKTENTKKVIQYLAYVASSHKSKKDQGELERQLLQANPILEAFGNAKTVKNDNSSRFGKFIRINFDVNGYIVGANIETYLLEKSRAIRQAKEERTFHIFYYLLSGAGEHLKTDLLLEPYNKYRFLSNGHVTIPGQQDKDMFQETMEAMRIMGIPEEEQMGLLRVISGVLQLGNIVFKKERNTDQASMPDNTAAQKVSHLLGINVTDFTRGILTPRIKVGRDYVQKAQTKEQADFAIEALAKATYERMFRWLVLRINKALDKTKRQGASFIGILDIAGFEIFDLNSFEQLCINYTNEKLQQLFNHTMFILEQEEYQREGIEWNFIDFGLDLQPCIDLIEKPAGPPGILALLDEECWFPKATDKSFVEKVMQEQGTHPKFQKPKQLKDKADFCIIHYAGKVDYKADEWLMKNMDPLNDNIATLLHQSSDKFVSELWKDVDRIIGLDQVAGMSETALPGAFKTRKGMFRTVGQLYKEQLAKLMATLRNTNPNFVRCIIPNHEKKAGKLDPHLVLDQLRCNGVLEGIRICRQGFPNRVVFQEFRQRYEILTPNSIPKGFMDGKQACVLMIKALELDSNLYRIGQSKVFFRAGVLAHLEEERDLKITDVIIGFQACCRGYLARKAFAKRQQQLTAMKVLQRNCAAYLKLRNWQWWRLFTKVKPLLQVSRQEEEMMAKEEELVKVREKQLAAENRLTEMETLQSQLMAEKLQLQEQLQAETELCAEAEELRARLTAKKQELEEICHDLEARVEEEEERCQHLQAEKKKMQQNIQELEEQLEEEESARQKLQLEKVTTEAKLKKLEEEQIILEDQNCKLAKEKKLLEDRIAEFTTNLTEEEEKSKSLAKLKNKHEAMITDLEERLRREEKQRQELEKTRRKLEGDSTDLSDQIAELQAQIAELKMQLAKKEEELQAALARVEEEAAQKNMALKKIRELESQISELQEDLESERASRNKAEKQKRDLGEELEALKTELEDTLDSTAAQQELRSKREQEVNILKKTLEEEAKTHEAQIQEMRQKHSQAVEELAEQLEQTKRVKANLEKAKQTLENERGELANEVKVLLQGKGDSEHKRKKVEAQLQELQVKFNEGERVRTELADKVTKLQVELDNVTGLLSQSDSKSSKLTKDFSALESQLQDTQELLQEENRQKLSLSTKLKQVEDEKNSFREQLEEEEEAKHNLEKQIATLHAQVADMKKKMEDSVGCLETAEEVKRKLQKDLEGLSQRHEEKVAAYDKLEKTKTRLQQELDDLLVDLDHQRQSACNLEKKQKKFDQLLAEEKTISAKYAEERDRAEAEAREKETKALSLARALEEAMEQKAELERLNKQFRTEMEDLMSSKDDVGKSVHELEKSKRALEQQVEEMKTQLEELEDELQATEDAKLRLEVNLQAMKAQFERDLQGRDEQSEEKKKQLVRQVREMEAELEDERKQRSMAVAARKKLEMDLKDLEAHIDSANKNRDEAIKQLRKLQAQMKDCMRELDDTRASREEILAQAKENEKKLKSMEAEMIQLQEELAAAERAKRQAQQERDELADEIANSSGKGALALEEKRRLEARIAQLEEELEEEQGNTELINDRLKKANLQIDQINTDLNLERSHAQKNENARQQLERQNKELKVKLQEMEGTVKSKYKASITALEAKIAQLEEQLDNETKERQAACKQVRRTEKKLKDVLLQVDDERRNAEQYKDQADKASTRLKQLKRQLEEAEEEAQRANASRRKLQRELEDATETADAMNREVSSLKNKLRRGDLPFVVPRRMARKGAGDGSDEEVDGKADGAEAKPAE

Protein S100-A4 (Homo sapiens), P26447 C81D, sequence (P26447 whole entry C81D): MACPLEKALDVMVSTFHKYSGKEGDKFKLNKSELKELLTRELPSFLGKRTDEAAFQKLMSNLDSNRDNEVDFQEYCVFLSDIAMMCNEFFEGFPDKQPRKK

| effect of a mutation on the interaction | Substance |
| --- | --- |
| disrupting interaction strength | Protein S100-A4 (Homo sapiens), P26447 C81D |
| disrupting interaction strength | Protein S100-A4 (Homo sapiens), P26447 V77D |
